Assay results from article PMC12732657.

Tests used:
[1] = molecular target: Bovine pancreatic β-trypsin (bovine)
[2] = molecular target: Bovine pancreatic β-trypsin (bovine); test: ITC; CVTI (200 µM) injected in 2.02 µL steps into 170 µL cell with bovine trypsin (20 µM); 50 mM Tris pH 7.8, 150 mM NaCl; Nano ITC

Substance: Cleome viscosa trypsin inhibitor (natural protein)
- Vmax of caseinolysis by trypsin (5 µM) in the presence of CVTI (15 µM); 20.23 µM/min without CVTI [1]: 16.7 µM/min
- Ka [2]: 513000 M⁻¹
- Kd [2]: 1.95 µM
- dH [2]: 76.8 kcal/mol
- stoichiometry N [2]: 1.1
